Laboratory results taken from patent US10640563B2, “Anti-B7-H3 antibodies and antibody drug conjugates” (AbbVie Inc., priority 2016, dated 2020).
Changes are numbered by the printed parent chain.

Assays:
[1] = Size exclusion chromatography, % aggregate of ADC; format: physicochemical; settings: ADC with synthon CZ, conjugation Method A
Procedure: The DAR and percentage aggregation of ADCs synthesized were determined by LC-MS and size exclusion chromatography (SEC), respectively.
Size exclusion chromatography was performed using a Shodex KW802.5 column in 0.2 M potassium phosphate pH 6.2 with 0.25 mM potassium chloride and 15% IPA at a flow rate of 0.75 ml/min. The peak area absorbance at 280 nm was determined for each of the high molecular weight and monomeric eluents by integration of the area under the curve. The % aggregate fraction of the conjugate sample was determined by dividing the peak area absorbance at 280 nm for the high molecular weight eluent by the sum of the peak area absorbances at […] of the high molecular weight and monomeric eluents multiplied by 100%.

[2] = test system: HCC38 (breast cancer) cells; test: In vitro cell viability assay (CellTiter-Glo), HCC38; format: cell-based, human; settings: for IC50: ADC with synthon CZ, HCC38 breast cancer cells, viability after 5 days, read-out: Cytotoxicity (HCC38 cell line IC50nM); for cytotoxicity in cells expressing human B7-H3 (in words): antibody conjugated to synthon CZ
Procedure: (§1) Nine anti-B7-H3 chimeric antibodies were conjugated to the Bcl-xL inhibiting (Bcl-xLi) synthon CZ (Example 2.1) using conjugation Method A described below. The resulting ADCs (anti-B7-H3 antibodies conjugated to synthon CZ) were tested for binding to cell surface human B7-H3 by FACS (as described in Example 6) and for cell cytotoxicity in cell lines expressing B7-H3. […] Table 6 provides cell surface binding and cytotoxicity activity of anti-B7-H3 chimera ADCs against breast cancer cell HCC38 expressing human B7-H3.
The tumor cell lines HCC38 (breast cancer), NCI-H1650 (NSCLC) and NCI-H847 (small cell lung cancer cell line) were obtained from American Type Culture Collection (ATCC). Cells were grown in 96-well culture plates using recommended growth media overnight at a density of 5×10^3 (HCC38) or 20×10^3 (NCI-H847) or 40×10^3 (NCI-H1650) per well. The following day, treatments were added in fresh media to triplicate wells. Cellular viability was determined 5 days later using the CellTiter-Glo Luminescent Cell Viability Assay kit (Promega), as directed in the manufacturer's protocol. Cell viability was assessed as percentage of control untreated cells.

[3] = Observation after conjugation to synthon (Method A); format: physicochemical; settings: after conjugation to Bcl-xLi synthon CZ
Procedure: as §1
A solution of Bond-Breaker™ tris(2-carboxyethyl)phosphine (TCEP) solution (10 mM, 0.017 mL) was added to a solution of antibody (10 mg/mL, 1 mL) preheated to 37° C. The reaction mixture was kept at 37° C. for 1 hour. The solution of reduced antibody was added to a solution of synthon (3.3 mM, 0.160 mL in DMSO) and gently mixed for 30 minutes. The reaction solution was loaded onto a desalting column (PD10, washed with Dulbecco's phosphate-buffered saline [DPBS] 3× before use), followed by DPBS (3 mL). The purified ADC solution was filtered through a 0.2 micron, low protein-binding 13 mm syringe-filter and stored at 4° C.

NCI-H146 cells = test: In vivo xenograft model of small cell lung cancer (NCI-H146); set-up: species or system mice; settings: 6 mg/kg/IP/QDx1
HCC38 cell line = test: Cell cytotoxicity of ADCs in HCC38 cell line; format: cell-based; settings: CZ conjugates
Procedure: The humanization of chAb18 generated 10 variants (described above in Table 9) that retained binding to human and cyno B7-H3 as assessed by FACS (the method of which is described above in Example 6). These variants were further characterized for binding by SPR and were successfully conjugated to the Bcl-xL inhibitor synthon CZ using Method A (described above) and assessed for cell cytotoxicity as described in Example 7. The parental chAb18 from which the variants were derived was also tested as a comparator. All humanized variants had similar binding properties as assessed by biacore, and retained binding activity to cell surface expressed as conjugates with the CZ synthon. The cytotoxicity of all of the variants as CZ synthons were similar to the chAb18 from which they were derived.
Humanized chAb18 variants were conjugated to the CZ synthon and tested for cytotoxicity in HCC38 cell line.

[4] = Aggregation of conjugates by SEC; format: physicochemical
[5] = Table 10, CZ conjugates of Ab18 variants

B1: chAb14-CZ (conjugate)
VH: EVKLVESGGGLVKPGGSLKLSCAASGFTFSSYGMSWVRQTPEKRLEWVATISGGGTNTYYPDSVEGRFTISRDNAKNFLYLQMSSLRSEDTALYYCARHYGSQTMDYWGQGTSVTVSS
VL: DIQMTQSPASLSASVGETVTITCRTSGNIHNYLTWYQQKQGKSPQLLVYNAKTLADGVPSRFSGSGSGTQFSLKINSLQPEDFGSYYCQHFWSIMWTFGGGTKLEIK
% agg by SEC [1]: 1.9%
IC50 [2]: 2.01 nM
Conjugation observation [3]: Clear

B2: chAb4-CZ (conjugate)
VH: QVQLQQPGAELVKPGASVKLSCKASGYSFTSYWMHWVKQRPGQGLEWIGMIHPNSGSNNYNEKFKSKATLTVDKSSNTAYMQLSSLTSEDSAVYYCARRLGLHFDYWGQGTTLTVSS
VL: DIVMTQSQKFMSTPVGDRVSITCKASQNVGTAVAWYQQKPGQSPKLLIYSASNRYTGVPDRFTGSGSGTDFTLTISNMQSEDLADYFCQQYSSYPYTFGGGTKLEIK
% agg by SEC [1]: 5.7%
IC50 [2]: 0.26 nM
Conjugation observation [3]: Clear

B3: chAb2 (conjugate)
VH: QVQLQQPGAELVKPGASVKLSCKASGYTFTSYWMHWVKQRPGQGLEWIGMIHPDSGTTNYNEKFRSKATLTVDKSSSTAYMQLSSLTSEDSAVYYCAVYYGSTYWYFDVWGTGTTVTVSS
VL: DVVMTQTPLSLPVSLGDQAYISCRSSQSLVHINGNTYLHWYRQKPGQSPKLLIYKVSNRFSGVPDRFSGSGSGTDFTLKISRVEAEDLGVYFCSQSTHFPFTFGSGTKLEIK
modifications: conjugated payload not specified; Synthetic chAb2 VH amino acid sequence; Synthetic chAb2 VL amino acid sequence
cytotoxicity in cells expressing human B7-H3 (in words) [2]: weak cytotoxicity
Conjugation observation [3]: precipitated

B4: huAb3v6-CZ (conjugate)
VH: EVQLVQSGAEVKKPGSSVKVSCKASGYTFSSYWMHWVRQAPGQGLEWIGLIHPDSGSTNYNEMFKNRATLTVDRSTSTAYVELSSLRSEDTAVYFCAGGGRLYFDYWGQGTTVTVSS
VL: DVVMTQSPLSLPVTPGEPASISCRSSQSLVHSNGDTYLRWYLQKPGQSPQLLIYKVSNRFSGVPDRFSGSGSGTDFTLKISRVEAEDVGVYYCSQSTHVPYTFGGGTKVEIK
TGD (%) (NCI-H146 cells; Table 15): 88%
TGImax (%) (NCI-H146 cells; Table 15): 91%
IC50 (HCC38 cell line; Table 14): 0.13 nM
% agg by SEC ([4]; Table 14, CZ conjugates of Ab3 variants): 4.9%

B5: chAb11-CZ (conjugate)
VH: EVKLVESGGGLVQPGGSLRLSCATSGFTFTNYYMSWVRQPPGKALEWLGFIRNKANDYTTEYSASVKGRFTISRDNSQSILYLQMNTLRAEDSATYYCARESPGNPFAYWGQGTLVTVSA
VL: DIVMTQSPSSLTVTAGEKVTMTCKSSQSLLNSGTQKNFLTWYQQKPGQPPKLLIYWASTRESGVPDRFTGSGSGTDFTLTISSVQAEDLAVYFCQNDYIYPLTFGAGTKLELK
% agg by SEC [1]: 5.6%
IC50 [2]: 2.34 nM
Conjugation observation [3]: Clear

B6: huAb18v1-CZ (conjugate)
VH: EVQLVQSGAEVKKPGSSVKVSCKASGYSFTSYTIHWVRQAPGQGLEWMGYINPNSRNTDYNQKFKDRVTITADKSTSTAYMELSSLRSEDTAVYYCARYSGSTPYWYFDVWGQGTTVTVSS
VL: DIQLTQSPSFLSASVGDRVTITCRASSSVSYMNWYQQKPGKAPKLLIYATSNLASGVPSRFSGSGSGTEFTLTISSLQPEDFATYYCQQWSSNPLTFGQGTKLEIK
TGD (%) (NCI-H146 cells; Table 11): 45%
TGImax (%) (NCI-H146 cells; Table 11): 79%
IC50 (HCC38 cell line; Table 10): 0.39 nM
% agg by SEC [4, 5]: 3.3%

B7: huAb18v7-CZ (conjugate)
VH: B6 VH with N61A, K65Q, D66G, I70L
VL: EIVLTQSPDFQSVTPKEKVTITCRASSSVSYMNWYQQKPDQSPKPWIYATSNLASGVPSRFSVSVSGTDHTLTINSLEAEDAATYYCQQWSSNPLTFGQGTKLEIK
TGD (%) (NCI-H146 cells; Table 11): 42%
TGImax (%) (NCI-H146 cells; Table 11): 87%
IC50 (HCC38 cell line; Table 10): 0.03 nM
% agg by SEC [4, 5]: 3.6%

B8: huAb18v4-CZ (conjugate)
VH: B6 VH with N61A, K65Q, D66G, I70L
VL: B6 VL with A42S, L45P, L46W, G63V, G65V, F70H
TGD (%) (NCI-H146 cells; Table 11): 48%
TGImax (%) (NCI-H146 cells; Table 11): 85%
IC50 (HCC38 cell line; Table 10): 0.29 nM
% agg by SEC [4, 5]: 5.5%

B9: huAb18v9-CZ (conjugate)
VH: B6 VH with M48I, V68T, I70L, K74R
VL: B7 VL
TGD (%) (NCI-H146 cells; Table 11): 35%
TGImax (%) (NCI-H146 cells; Table 11): 83%
IC50 (HCC38 cell line; Table 10): 0.9 nM
% agg by SEC [4, 5]: 3.8%

B10: huAb18v3-CZ (conjugate)
VH: B6 VH with M48I, V68T, I70L, K74R
VL: B6 VL with A42S, L45P, L46W, G63V, G65V, F70H
TGD (%) (NCI-H146 cells; Table 11): 39%
TGImax (%) (NCI-H146 cells; Table 11): 81%
IC50 (HCC38 cell line; Table 10): 0.32 nM
% agg by SEC [4, 5]: 3.6%

B11: huAb18v6-CZ (conjugate)
VH: B6 VH with N61A, K65Q, D66G, I70L
VL: B7 VL with P45L, W46L, Y48K, V63G, V65G, H70F
TGD (%) (NCI-H146 cells; Table 11): 45%
TGImax (%) (NCI-H146 cells; Table 11): 86%
IC50 (HCC38 cell line; Table 10): 0.14 nM
% agg by SEC [4, 5]: 3.5%

B12: chAb6 (conjugate)
VH: QVQLQQSGAELMKPGASVKISCKATGYTFSRYWIEWVKQRPGHGLEWIGEILPGSGSTNYNEKFKGKATFTADTSSNTAYMQVSSLTSEDSAVHYCARRGYGYVPYALDYWGQGTSVTVSS
VL: EIQMTQTTSSLSASLGDRVTISCRASQDISNSLNWYQQKPDGTVNLLIYYTSRLYSGVPSRFSGSGSGTDYSLTISNLEQEDIATYFCQQGNTLPYTFGGGTKLEIK
cytotoxicity in cells expressing human B7-H3 (in words) [2]: weak cytotoxicity
Conjugation observation [3]: precipitated

B13: chAb6-CZ (conjugate)
VH: B12 VH
VL: B12 VL
% agg by SEC [1]: 0.5%
IC50 [2]: 81 nM
Conjugation observation [3]: Precipitates

B14: chAb16 (conjugate)
VH: EVKLLESGGGLVQPGGSLKLSCAASGFDFSRYWMSWVRQAPGKGLEWIGEINPDSSTINYTPSLKDKFIISRDNAKNTLYLQMSKVRSEDTALYYCARPGFGNYIYAMDYWGQGTSVTVSS
VL: B12 VL with E1D, S22N, S32F, N45K, S56L, Y96P
modifications: conjugated drug; Synthetic chAb16 VH amino acid sequence; Synthetic chAb16 VL amino acid sequence
cytotoxicity in cells expressing human B7-H3 (in words) [2]: weak cytotoxicity
Conjugation observation [3]: precipitated

B15: chAb16-CZ (conjugate)
VH: B14 VH
VL: B12 VL with E1D, S22N, S32F, N45K, S56L, Y96P
% agg by SEC [1]: 2.3%
IC50 [2]: 21.9 nM
Conjugation observation [3]: Precipitates
